# Source: article PMC8863895, “A synthetic protein as efficient multitarget regulator against complement over-activation” (Communications Biology, 2022)
# Key:
# Conditions in all cases: both partners purified
# [1] = molecular target: T1, complement C3b (UniProt P01024 749-1663; P01024 749-1663); assay: ELISA; 5 µg/mL C3b or C5 immobilised on Maxisorp plates at 4 °C overnight; increasing concentrations of regulator (0.195-50 nM) in sample buffer (2% BSA in TBS, 0.05% Tween-20); detected with anti-His-tag antibodies; absorbance normalised to the highest concentration; IC50 from a 4PL nonlinear regression
# T1 construct: C3b beta-chain, cut product of complement C3; C3b alpha'-chain, cut product of complement C3 (alpha chain without C3a); source: bought: CompTech
# [2] = molecular target: T2, complement C5; assay: as above
# T2 construct: complement C5 beta chain; complement C5 alpha chain; source: bought: CompTech
# [3] = molecular target: T3, C8 (human, UniProt P07357 31-584; P07358 55-591; P07360 21-202); assay: ELISA; C5b6, C6, C7, C8, C9, C3b or C5 (5 µg/mL) immobilised on Maxisorp plates; single concentration of regulator (25 nM MFHR13 or MFHR1 variants, 50 nM FHR1); detected with anti-His-tag antibodies
# T3 construct: also called complement component C8; source: bought: CompTech; copies: + +
# T3 sequence (P07357 31-584, chain 1 of 3): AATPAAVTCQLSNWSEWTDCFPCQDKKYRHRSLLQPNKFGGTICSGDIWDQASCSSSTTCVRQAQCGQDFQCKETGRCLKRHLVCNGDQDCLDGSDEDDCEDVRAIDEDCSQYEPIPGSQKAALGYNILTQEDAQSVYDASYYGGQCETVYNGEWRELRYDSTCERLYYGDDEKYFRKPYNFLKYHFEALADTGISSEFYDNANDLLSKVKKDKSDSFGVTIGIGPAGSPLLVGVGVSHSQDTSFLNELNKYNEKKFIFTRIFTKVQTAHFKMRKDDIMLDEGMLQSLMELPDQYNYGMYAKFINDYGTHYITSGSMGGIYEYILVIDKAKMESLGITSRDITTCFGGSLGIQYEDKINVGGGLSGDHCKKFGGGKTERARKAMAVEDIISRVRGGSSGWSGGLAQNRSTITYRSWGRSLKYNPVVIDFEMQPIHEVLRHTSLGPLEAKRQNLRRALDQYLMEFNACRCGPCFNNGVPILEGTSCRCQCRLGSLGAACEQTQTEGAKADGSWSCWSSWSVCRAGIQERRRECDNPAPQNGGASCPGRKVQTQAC
# T3 sequence (P07358 55-591, chain 2 of 3): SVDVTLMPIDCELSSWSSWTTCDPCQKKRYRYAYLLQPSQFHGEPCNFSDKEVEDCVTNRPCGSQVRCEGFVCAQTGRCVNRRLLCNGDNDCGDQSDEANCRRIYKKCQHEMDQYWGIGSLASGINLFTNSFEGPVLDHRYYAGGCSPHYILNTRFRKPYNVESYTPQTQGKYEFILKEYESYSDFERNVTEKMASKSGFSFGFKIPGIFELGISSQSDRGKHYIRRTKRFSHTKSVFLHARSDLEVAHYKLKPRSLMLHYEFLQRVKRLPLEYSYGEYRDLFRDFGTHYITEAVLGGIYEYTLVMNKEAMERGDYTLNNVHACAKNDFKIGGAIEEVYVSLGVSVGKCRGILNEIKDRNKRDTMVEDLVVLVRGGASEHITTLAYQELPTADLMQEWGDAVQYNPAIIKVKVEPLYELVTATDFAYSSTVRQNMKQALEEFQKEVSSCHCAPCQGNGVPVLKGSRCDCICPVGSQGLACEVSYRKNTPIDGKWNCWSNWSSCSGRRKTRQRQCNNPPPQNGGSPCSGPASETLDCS
# T3 sequence (P07360 21-202, chain 3 of 3): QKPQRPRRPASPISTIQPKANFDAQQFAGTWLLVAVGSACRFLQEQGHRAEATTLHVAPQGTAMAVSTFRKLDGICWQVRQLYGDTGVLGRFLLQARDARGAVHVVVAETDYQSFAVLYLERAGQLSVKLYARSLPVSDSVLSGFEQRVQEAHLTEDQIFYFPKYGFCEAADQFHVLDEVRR
# [4] = molecular target: T4, C6 (human, UniProt P13671 22-934); assay: as above
# T4 construct: complement component C6; also called complement component C6; source: bought: CompTech
# T4 sequence (P13671 22-934): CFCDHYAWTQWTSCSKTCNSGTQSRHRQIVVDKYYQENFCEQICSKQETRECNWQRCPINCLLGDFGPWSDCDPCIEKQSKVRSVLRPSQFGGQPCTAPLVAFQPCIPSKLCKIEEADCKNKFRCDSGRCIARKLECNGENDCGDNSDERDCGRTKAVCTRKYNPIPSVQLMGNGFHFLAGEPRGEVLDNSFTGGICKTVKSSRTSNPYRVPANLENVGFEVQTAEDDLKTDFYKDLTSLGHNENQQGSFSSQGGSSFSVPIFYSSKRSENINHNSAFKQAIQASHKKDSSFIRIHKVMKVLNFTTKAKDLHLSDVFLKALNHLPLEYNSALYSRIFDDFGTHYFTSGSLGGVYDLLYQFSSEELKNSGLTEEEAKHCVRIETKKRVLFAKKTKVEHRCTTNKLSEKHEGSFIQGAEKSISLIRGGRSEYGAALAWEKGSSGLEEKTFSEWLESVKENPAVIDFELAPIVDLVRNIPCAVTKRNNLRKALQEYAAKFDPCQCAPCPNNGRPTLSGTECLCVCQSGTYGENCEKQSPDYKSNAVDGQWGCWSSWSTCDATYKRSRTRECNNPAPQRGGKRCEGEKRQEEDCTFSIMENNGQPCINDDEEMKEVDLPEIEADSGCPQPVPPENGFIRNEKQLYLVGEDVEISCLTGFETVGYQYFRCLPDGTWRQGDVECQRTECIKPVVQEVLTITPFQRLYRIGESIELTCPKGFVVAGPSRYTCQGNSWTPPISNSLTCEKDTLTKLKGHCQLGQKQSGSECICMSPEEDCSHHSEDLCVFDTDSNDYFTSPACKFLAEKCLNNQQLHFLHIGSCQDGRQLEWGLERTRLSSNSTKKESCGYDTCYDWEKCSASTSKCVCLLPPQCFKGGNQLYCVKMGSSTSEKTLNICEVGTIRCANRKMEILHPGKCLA
# [5] = molecular target: T5, C9 (human, UniProt P02748 22-559); assay: as above
# T5 construct: complement component C9; Supplier is stated for the ELISA; also called complement component C9; source: bought: CompTech
# T5 sequence (P02748 22-559): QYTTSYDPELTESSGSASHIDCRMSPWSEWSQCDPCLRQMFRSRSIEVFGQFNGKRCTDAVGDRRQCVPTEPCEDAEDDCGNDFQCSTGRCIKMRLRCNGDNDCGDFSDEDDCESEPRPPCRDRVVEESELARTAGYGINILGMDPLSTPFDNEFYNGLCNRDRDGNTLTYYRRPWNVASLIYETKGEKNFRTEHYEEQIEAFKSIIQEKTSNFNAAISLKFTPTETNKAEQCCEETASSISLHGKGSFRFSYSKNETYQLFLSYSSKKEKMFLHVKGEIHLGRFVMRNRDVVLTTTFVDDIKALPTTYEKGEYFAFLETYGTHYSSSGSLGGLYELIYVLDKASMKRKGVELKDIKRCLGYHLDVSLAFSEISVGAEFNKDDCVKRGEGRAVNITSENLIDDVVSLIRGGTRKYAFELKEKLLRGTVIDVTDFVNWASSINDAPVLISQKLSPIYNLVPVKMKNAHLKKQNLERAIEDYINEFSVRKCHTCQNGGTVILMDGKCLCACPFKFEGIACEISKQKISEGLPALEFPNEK
# [6] = molecular target: T6, C7 (human, UniProt P10643 23-843); assay: as above
# T6 construct: complement component C7; Supplier is stated for the ELISA; also called complement component C7; source: bought: CompTech
# T6 sequence (P10643 23-843): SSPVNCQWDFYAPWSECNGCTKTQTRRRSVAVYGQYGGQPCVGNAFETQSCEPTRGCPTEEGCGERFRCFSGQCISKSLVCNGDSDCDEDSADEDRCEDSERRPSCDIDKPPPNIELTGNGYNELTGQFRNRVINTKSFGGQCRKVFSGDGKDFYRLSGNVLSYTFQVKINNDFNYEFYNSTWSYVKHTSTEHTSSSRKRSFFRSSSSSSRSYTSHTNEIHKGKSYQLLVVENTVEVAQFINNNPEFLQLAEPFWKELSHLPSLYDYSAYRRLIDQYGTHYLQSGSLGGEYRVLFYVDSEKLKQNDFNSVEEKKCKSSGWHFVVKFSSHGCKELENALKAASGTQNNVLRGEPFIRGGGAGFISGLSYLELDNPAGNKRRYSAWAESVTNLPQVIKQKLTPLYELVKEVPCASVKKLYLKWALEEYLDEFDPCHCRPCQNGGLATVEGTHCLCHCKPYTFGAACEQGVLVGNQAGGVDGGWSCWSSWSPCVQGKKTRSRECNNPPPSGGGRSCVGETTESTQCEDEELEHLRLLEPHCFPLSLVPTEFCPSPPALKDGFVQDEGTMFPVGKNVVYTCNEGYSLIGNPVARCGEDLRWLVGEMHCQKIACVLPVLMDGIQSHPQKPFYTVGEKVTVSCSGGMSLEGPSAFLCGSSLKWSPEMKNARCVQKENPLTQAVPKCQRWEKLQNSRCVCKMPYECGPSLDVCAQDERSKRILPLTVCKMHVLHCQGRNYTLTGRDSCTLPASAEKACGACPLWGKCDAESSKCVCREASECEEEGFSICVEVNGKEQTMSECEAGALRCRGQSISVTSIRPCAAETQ
# [7] = molecular target: T7, C3b (human); assay: ELISA; decay acceleration assay: 250 ng C3b immobilised on Maxisorp; C3bBb formed with 400 ng Factor B and 25 ng Factor D, 2 h 37 °C; increasing concentrations of regulator, 40 min 37 °C; Bb remaining bound to C3b detected with anti-factor B polyclonal antibody
# T7 construct: complement C3, C3b β-chain; complement C3, C3b α′-chain (C3 α-chain after release of C3a); also called complement C3b; source: bought: CompTech
binder,measurement,setting,value
MFHR13 (FHR1_(1-2):FH1-4:FH13:FH_(19-20)) (other) EATFCDFPKINHGILYDEEKYKPFSQVPTGEVFYYSCEYNFVSPSKSFWTRITCTEEGWSPTPKCLRLCFFPFVENGHSESSGQTHLEGDTVQIICNTGYRLQNNENNISCVERGWSTPPKCRSEDCNELPPRRNTEILTGSWSDQTYPEGTQAIYKCRPGYRSLGNIIMVCRKGEWVALNPLRKCQKRPCGHPGDTPFGTFTLTGGNVFEYGVKAVYTCNEGYQLLGEINYRECDTDGWTNDIPICEVVKCLPVTAPENGKIVSSAMEPDREYHFGQAVRFVCNSGYKIEGDEEMHCSDDGFWSKEKPKCVEISCKSPDVINGSPISQKIIYKENERFQYKCNMGYEYSERGDAVCTESGWRPLPSCVAIDKLKKCKSSNLIILEEHLKNKKEFDHNSNIRYRCRGKEGWIHTVCINGRWDPEVNCSMAQIQLCGPPPPIDNGDITSFPLSVYAPASSVEYQCQNLYQLEGNKRITCRNGQWSEPPKCLHPCVISREIMENYNIALRWTAKQKLYSRTGESVEFVCKRGYRLSSRSHTLRTTCWDGKLEYPTCAKR,IC50,[1],16.1 nM
same,IC50,[2],52.5 nM
"Recombinant FHR1 (human FH-related protein 1) with a C-terminal 6x His-tag (natural protein, UniProt Q03591 19-330, looked up, complement factor H-related protein 1 (FHR1), human; source: bought: Abcam 152006; not shown: His6, C-terminal, kept) EATFCDFPKINHGILYDEEKYKPFSQVPTGEVFYYSCEYNFVSPSKSFWTRITCTEEGWSPTPKCLRLCFFPFVENGHSESSGQTHLEGDTVQIICNTGYRLQNNENNISCVERGWSTPPKCRSTDTSCVNPPTVQNAHILSRQMSKYPSGERVRYECRSPYEMFGDEEVMCLNGNWTEPPQCKDSTGKCGPPPPIDNGDITSFPLSVYAPASSVEYQCQNLYQLEGNKRITCRNGQWSEPPKCLHPCVISREIMENYNIALRWTAKQKLYLRTGESAEFVCKRGYRLSSRSHTLRTTCWDGKLEYPTCAKR",binding result,[3],binds
same,binding result,[4],binds
same,binding result,[5],binds
same,binding result,[6],binds
"MFHR13 (FHR1_(1-2):FH1-4:FH13:FH_(19-20)) (other, N-glycan at the NIS site in FHR1 SCR2 (around 65% occupied); N-glycan at the NCS site in FH13 (fully glycosylated); glycosylation site in FH4 deamidated and not glycosylated; labelled with NT-647 RED-NHS for MST) EATFCDFPKINHGILYDEEKYKPFSQVPTGEVFYYSCEYNFVSPSKSFWTRITCTEEGWSPTPKCLRLCFFPFVENGHSESSGQTHLEGDTVQIICNTGYRLQNNENNISCVERGWSTPPKCRSTEDCNELPPRRNTEILTGSWSDQTYPEGTQAIYKCRPGYRSLGNIIMVCRKGEWVALNPLRKCQKRPCGHPGDTPFGTFTLTGGNVFEYGVKAVYTCNEGYQLLGEINYRECDTDGWTNDIPICEVVKCLPVTAPENGKIVSSAMEPDREYHFGQAVRFVCNSGYKIEGDEEMHCSDDGFWSKEKPKCVEISCKSPDVINGSPISQKIIYKENERFQYKCNMGYEYSERGDAVCTESGWRPLPSCVAIDKLKKCKSSNLIILEEHLKNKKEFDHNSNIRYRCRGKEGWIHTVCINGRWDPEVNCSMAQIQLCGPPPPIDNGDITSFPLSVYAPASSVEYQCQNLYQLEGNKRITCRNGQWSEPPKCLHPCVISREIMENYNIALRWTAKQKLYSRTGESVEFVCKRGYRLSSRSHTLRTTCWDGKLEYPTCAKR",IC50,[7],2.7 nM
